Results from patent US20180306791A1 (GlaxoSmithKline, published 2018).
Values belong to the binder of their own block, whether it stands above or below them.

Experiments:
BCMA [1] = target: T1, BCMA (human, UniProt Q02223 1-184); assay: flow cytometry on H929 cells (sheet group HIGH); ratio of MFI of BCMA stained to isotype IgG2a-488 stained cells
T1 construct: whole, on cells; Endogenous on human cell lines and patient cells, or from plasmid pCDNA3.1 hBCMA in ARH-77 cells; also called CD269; TNFRSF17
T1 sequence (looked up): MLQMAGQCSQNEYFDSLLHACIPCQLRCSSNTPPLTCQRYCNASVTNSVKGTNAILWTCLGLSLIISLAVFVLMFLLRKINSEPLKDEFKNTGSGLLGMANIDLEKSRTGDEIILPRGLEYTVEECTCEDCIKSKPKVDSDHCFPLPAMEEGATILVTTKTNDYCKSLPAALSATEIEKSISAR

BCMA [2] = target: T1, BCMA; assay: flow cytometry, CD138+ gated bone marrow cells of patient GSK034 (group MODERATE); ratio of MFI to IgG2a-488 control
BCMA [3] = target: T1, BCMA; assay: flow cytometry inset, high BCMA-transduced (HIGH) ARH77 cells; ratio to isotype control
BCMA [4] = target: T1, BCMA; assay: flow cytometry, CD138+ gated bone marrow cells of patient GSK064 (group LOW); ratio of MFI to IgG2a-488 control
BCMA [5] = target: T1, BCMA; assay: flow cytometry inset, low BCMA-transduced (LOW) ARH77 cells; ratio to isotype control
BCMA [6] = target: T1, BCMA; assay: flow cytometry on RPMI8226 cells (printed RPM18226; group LOW); ratio of MFI to isotype IgG2a-488
BCMA [7] = target: T1, BCMA; assay: flow cytometry, CD138+ gated bone marrow cells of patient GSK050 (group MODERATE); ratio of MFI to IgG2a-488 control
BCMA [8] = target: T1, BCMA; assay: flow cytometry, CD138+ gated bone marrow cells of patient GSK039 (group HIGH); ratio of MFI to IgG2a-488 control
BCMA [9] = target: T1, BCMA; assay: flow cytometry on MM1.s cells (sheet group MODERATE); ratio of MFI to isotype IgG2a-488
BCMA [10] = target: T1, BCMA; assay: flow cytometry on Raji cells (non-MM line, sheet group NEGATIVE for BCMA); ratio of MFI to isotype IgG2a-488; reflects absence of the target on these cells
BCMA [11] = target: T1, BCMA; assay: flow cytometry on JJN3 cells (printed JIN3 on the sheet; group MODERATE); ratio of MFI to isotype IgG2a-488
BCMA [12] = target: T1, BCMA; assay: flow cytometry on OPM2 cells (sheet group MODERATE); ratio of MFI to isotype IgG2a-488
BCMA [13] = target: T1, BCMA; assay: flow cytometry on JIM3 cells (sheet group MODERATE); ratio of MFI to isotype IgG2a-488
BCMA [14] = target: T1, BCMA; assay: flow cytometry, CD138+ gated bone marrow cells of patient GSK072 (group LOW); ratio of MFI to IgG2a-488 control
BCMA [15] = target: T1, BCMA; assay: flow cytometry on U266 cells (sheet group MODERATE); ratio of MFI to isotype IgG2a-488
BCMA [16] = target: T1, BCMA; assay: flow cytometry, CD138+ gated bone marrow cells of patient GSK048 (group HIGH); ratio of MFI to IgG2a-488 control
BCMA [17] = target: T1, BCMA; assay: flow cytometry inset, non-transduced (NT) ARH77 cells with negligible surface BCMA; ratio to isotype control
BCMA [18] = target: T1, BCMA; assay: flow cytometry on Daudi cells (non-MM line; group LOW); ratio of MFI to isotype IgG2a-488
BCMA [19] = target: T1, BCMA; assay: flow cytometry on KMM1 cells (sheet group NEGATIVE, text: low BCMA expression); ratio of MFI to isotype IgG2a-488; reflects the low level of the target on these cells
BCMA [20] = target: T1, BCMA; assay: flow cytometry on SUPT1 cells (non-MM line, sheet group NEGATIVE for BCMA); ratio of MFI to isotype IgG2a-488; reflects absence of the target on these cells
BCMA [21] = target: T1, BCMA; assay: flow cytometry, CD138+ gated bone marrow cells of patient GSK045 (group MODERATE); ratio of MFI to IgG2a-488 control
BCMA [22] = target: T1, BCMA; assay: flow cytometry of CD138+ cells of patient GSK087; number in the title of panel IV
Method: (§1) FIG. 14: J6M0-MMAF activity on primary CD138+ cells. (A) BM MNCs from one representative patient (GSK 087) with moderate BCMA expression incubated with J6M0-MMAF. Viable CD138+ cells (percentage of control) after 2 and 6 days (left panel) obtained by analyzing CD138+ cells by flow cytometry and gating CD138+ fraction (middle panel) onto AnnexinV/PI dot-plot (right panel). (B) Four representative experiments showing viable CD138+ cells after culture of BM MNCs from myeloma patients with concentrations of J6M0-MMAF at varying time points. For each patient, histogram showing binding of J6M0-wtFc PE to CD138+ cells (black) compared to cells pre-incubated with Fc block as control (white) and where available IHC staining with MIB1 (pink, nuclear) and CD138 (membrane, brown) as a measure of plasma cell proliferation.
(§2) For assessment of surface BCMA expression, murine anti-BCMA (clone 5307118G03, conjugated to AlexaFluor488), and the humanised antibody, J6M0-wtFc conjugated to PE were used in parallel. In the case of primary MM cells, staining was carried out on bone marrow (BM) mononuclear cells (MNCs) in 100μl PBS (Lonza)/0.5% BSA(PAA), using anti CD138 APC (Miltenyi), to identify tumour cells. […] A semi-quantitative measure of BCMA surface expression on MM cells was obtained from the ratio of the MFI of anti BCMA, versus isotype control stained samples (MFI ratio).

BCMA [23] = target: T1, BCMA; assay: flow cytometry of CD138+ cells of patient GSK048; number in the title of panel II
Method: as §1, §2

BCMA [24] = target: T1, BCMA; assay: flow cytometry of CD138+ cells of patient GSK085; number in the title of panel III
Method: as §1, §2

- MFIr (BCMA [1]): 15.3
- MFIr (BCMA [2]): 4.8
- MFIr (BCMA [3]): 54.8
- MFIr (BCMA [4]): 2.5
- MFIr (BCMA [5]): 16.6
- MFIr (BCMA [6]): 2
- MFIr (BCMA [7]): 6
- MFIr (BCMA [8]): 11.2
- MFIr (BCMA [9]): 6.8
- MFIr (BCMA [10]): 1.2
- MFIr (BCMA [11]): 4.6
- MFIr (BCMA [12]): 4.5
- MFIr (BCMA [13]): 5.7
- MFIr (BCMA [14]): 2
- MFIr (BCMA [15]): 5.8
- MFIr (BCMA [16]): 11.2
- MFIr (BCMA [17]): 1.8
- MFIr (BCMA [18]): 2.9
- MFIr (BCMA [19]): 1.1
- MFIr (BCMA [20]): 1
- MFIr (BCMA [21]): 3.8
B1: S307118G03 (antibody, from another filing, mouse IgG2a, V domains shown)
VH: EVQLQQSGPELVKPGASVKISCKASGYTFTDYYMKWVKQSHGKSLEWIGEIYPNNGGITYNQKFKGKATLTVDKSSSTAYMELRSLTSEDSAVYYCANGYEFVYWGQGTLVTVSA
VL: DIQMTQTASSLSASLGDRVTISCSASQGISNYLNWYQQKPDGTVKLLIYYTSSLHSGVPSRFSGSGSGTDYSLTISNLEPEDIATYYCQQYSKLPWTFGGGTKLEIKR

- MFI ratio (BCMA [22]): 7
- MFI ratio (BCMA [23]): 16.7
- MFI ratio (BCMA [24]): 3.65
B2: J6M0-wtFc (antibody, IgG1, V domains shown)
VH: QVQLVQSGAEVKKPGSSVKVSCKASGGTFSNYWMHWVRQAPGQGLEWMGATYRGHSDTYYNQKFKGRVTITADKSTSTAYMELSSLRSEDTAVYYCARGAIYDGYDVLDNWGQGTLVTVSS
VL: DIQMTQSPSSLSASVGDRVTITCSASQDISNYLNWYQQKPGKAPKLLIYYTSNLHSGVPSRFSGSGSGTDFTLTISSLQPEDFATYYCQQYRKLPWTFGQGTKLEIKR
notes: PE-conjugated for flow cytometry; no sentence says it outright; also called J6M0-wtFc PE; wild type Fc form of J6M0
